Reference: paper PMC2576564 (Frontiers in Molecular Neuroscience, 2008)

Target: the molecule itself
Assay: SEC; Superdex 200 16/60 column, after Ni-NTA purification of the secreted protein

B1: extracellular domain of human DPP6-L (residues 117–865) (domain or fragment)
chain: not shown
modifications: glycosylated
With B1 the “stoichiometry N” value was 2.
